Results taken from patent publication US10502741B2, “Means and methods for detecting activated MALT1” (Helmholtz Zentrum München Deutsches Forschungszentrum für …, priority 2014, dated 2019).

Experiments:
active MALT1 [1] = biological target: T1, active MALT1 (Homo sapiens, UniProt Q9UDY8); assay: Labeling with diagnostic inhibitor in cell extracts (gel-based, fluorescence scan): active MALT1 band
T1 construct: endogenous in cells; host or cells: Jurkat T cells, primary human PBMCs and T cells, DLBCL cell lines (HBL1, TMD8, OCI-Ly3, OCI-Ly10, U2932, RIVA, BJAB, Su-DHL-4, Su-DHL-6)
T1 sequence (Q9UDY8 1-824): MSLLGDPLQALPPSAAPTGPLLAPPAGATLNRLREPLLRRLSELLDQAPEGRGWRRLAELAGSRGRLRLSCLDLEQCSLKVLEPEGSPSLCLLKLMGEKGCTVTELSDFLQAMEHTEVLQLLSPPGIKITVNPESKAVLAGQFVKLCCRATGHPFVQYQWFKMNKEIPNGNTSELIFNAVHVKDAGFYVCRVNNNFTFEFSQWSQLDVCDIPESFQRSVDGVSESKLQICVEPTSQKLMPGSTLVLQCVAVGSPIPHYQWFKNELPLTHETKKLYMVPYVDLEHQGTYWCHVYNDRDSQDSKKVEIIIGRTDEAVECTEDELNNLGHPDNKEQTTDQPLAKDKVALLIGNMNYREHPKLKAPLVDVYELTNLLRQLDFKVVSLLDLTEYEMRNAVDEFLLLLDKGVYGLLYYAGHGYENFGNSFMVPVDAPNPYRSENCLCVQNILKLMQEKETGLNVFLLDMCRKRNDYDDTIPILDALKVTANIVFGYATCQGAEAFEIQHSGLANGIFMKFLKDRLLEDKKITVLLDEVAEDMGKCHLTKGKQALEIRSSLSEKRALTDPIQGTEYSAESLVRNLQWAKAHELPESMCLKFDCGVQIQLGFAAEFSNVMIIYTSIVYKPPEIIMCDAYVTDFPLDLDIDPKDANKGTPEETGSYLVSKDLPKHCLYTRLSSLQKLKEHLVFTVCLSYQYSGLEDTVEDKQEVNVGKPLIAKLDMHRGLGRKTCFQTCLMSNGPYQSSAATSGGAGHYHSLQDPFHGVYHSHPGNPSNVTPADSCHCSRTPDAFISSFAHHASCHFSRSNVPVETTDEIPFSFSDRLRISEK
Experimental: (§1) Jurkat T cells were cultured in standard RPMI medium containing 10% FCS, 100 U/ml Penicillin/Streptomycin and 2 mM Glutamin. DNA transfection of 6 μg DNA in 8×10^6 Jurkat T cells was performed by electroporation in a GenePulser Xcell (BioRad) with a 220 Volt pulse. For siRNA experiments, Jurkat T cells were transfected with 100 nM siRNA and Atufect transfection reagent (Silence Therapeutics, Berlin). Jurkat T cells were stimulated either with 200 ng/ml PMA (phorbol 12-myristate 13-acetate) and 300 ng/ml Ionomycin (both Calbiochem) or CD3/CD28 antibody co-ligation (human CD3: 1 μg/ml; human CD28: 4 μg/ml; mouse IgG1: 2 μg/ml; mouse IgG2a: 2 μg/ml; BD Biosciences). DLBCL cell lines (HBL1, TMD8, OCI-Ly3, U2932, RIVA, BJAB, Su-DHL-4 and Su-DHL-6) were cultured in standard RPMI medium containing 20% FCS, 100 U/ml Penicillin/Streptomycin and 2 mM Glutamin. OCI-Ly10 cell line was cultured in IMDM containing 20% human serum, 100 U/ml Penicillin/Streptomycin, 2 U/ml heparine, 50 μM β-mercaptoethanol. Inhibitors 10 μM (z-VRPR-FMK, Mepazine, Thioridazine, CA-074Me) were added to the cells in media for 1 h, prior to stimulation and labeling with diagnostic MALT1 inhibitor.
Jurkat T cells (1-2×10^7), primary human PBMCs or primary human T cells (0.25 or 1×10^7) were lysed in 150 μl co-IP buffer without protease inhibitors. DLBCL (3×10^7) were lysed in 250 μl buffer. After centrifugation (14000 rpm, 10 min, 4° C.), 100 μl extract (DLBCL: 200 μl) was stained with probe 5 or probe 6 (3 μM end) for 50 min at 29° C., mixed with 4× loading dye and boiled.

active MALT1 [2] = biological target: T1, active MALT1; assay: ELISA-based assay (MALT1 ELASA) on streptavidin-coated plates with MALT1 antibody detection; type: cell-based; settings: inhibitor-treated (10 μM) DLBCL cells, probe 7
Experimental: as §1
Untreated DLBCL (1×10^7), primary T cells (0.25×10^7) or Jurkat T cells (0.2-1×10^7) (stimulated or not) were lysed in 300 μl co-IP buffer without protease inhibitors, centrifuged, incubated with probe 7 (concentration as depicted) for 1 h at RT, then transferred to streptavidin-coated plates (96 well, clear) and incubated o/n at 4° C. After blocking with 2% BSA in PBS-T, detection was performed by incubation with MALT1 primary antibody (1 h, RT) and HRP-coupled secondary antibody (1 h, RT). […] was determined after TMB substrate incubation in a photometer (Bio-Tek).

- effect of inhibitor on probe 6 labeling of active MALT1 (active MALT1 [1]; HBL1 cells, inhibitors 10 μM each): sensitivity
- effect of inhibitor on active MALT1 signal in DLBCL cells (active MALT1 [2]): strongly reduced
Substance: z-VRPR-FMK (Z N-terminal cap, FMK warhead)
- effect of inhibitor pretreatment on probe 5 labeling of active MALT1 (active MALT1 [1]; Jurkat T cells, 10 μM inhibitor before stimulation, probe 5): prevents binding of diagnostic MALT1-inhibitor
